Laboratory results: patent US20080118529

T1: Ovalbumin (chicken egg albumin, OVA, Sigma A5503), carefully dissolved, P01012
T1 chain: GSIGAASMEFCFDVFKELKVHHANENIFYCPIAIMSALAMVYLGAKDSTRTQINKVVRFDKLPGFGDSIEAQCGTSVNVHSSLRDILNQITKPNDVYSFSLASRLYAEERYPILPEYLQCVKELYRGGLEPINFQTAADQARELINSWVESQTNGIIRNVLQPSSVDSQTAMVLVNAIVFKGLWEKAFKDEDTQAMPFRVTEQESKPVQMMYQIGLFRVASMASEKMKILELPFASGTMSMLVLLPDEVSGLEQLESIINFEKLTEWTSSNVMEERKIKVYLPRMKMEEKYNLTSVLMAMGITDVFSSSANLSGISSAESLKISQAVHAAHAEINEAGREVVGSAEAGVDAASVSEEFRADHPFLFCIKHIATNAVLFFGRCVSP

T2: β2-glycoprotein I purified from fresh human plasma, P02749
T2 chain: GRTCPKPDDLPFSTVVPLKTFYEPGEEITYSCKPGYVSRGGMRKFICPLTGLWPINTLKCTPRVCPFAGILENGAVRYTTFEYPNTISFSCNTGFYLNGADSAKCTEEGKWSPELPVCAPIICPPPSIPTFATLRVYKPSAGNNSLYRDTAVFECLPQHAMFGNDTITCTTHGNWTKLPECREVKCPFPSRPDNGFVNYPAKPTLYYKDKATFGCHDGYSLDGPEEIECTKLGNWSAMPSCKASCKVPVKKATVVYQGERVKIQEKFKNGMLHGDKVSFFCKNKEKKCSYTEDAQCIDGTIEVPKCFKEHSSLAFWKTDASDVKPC

T3: recombinant human β2-glycoprotein I (made in insect cells), P02749
T3 chain: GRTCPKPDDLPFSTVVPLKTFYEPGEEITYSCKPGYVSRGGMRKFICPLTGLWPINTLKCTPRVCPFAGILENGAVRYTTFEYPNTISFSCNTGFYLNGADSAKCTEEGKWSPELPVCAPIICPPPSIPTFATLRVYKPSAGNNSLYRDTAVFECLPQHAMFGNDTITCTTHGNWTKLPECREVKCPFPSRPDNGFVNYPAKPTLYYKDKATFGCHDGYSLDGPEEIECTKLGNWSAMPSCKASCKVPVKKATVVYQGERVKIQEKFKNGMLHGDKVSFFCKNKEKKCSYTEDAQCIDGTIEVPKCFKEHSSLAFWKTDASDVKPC

T4: human β2-Glycoprotein I pre-incubated with cardiolipin vesicles (CL-β2gpi), P02749
T4 chain: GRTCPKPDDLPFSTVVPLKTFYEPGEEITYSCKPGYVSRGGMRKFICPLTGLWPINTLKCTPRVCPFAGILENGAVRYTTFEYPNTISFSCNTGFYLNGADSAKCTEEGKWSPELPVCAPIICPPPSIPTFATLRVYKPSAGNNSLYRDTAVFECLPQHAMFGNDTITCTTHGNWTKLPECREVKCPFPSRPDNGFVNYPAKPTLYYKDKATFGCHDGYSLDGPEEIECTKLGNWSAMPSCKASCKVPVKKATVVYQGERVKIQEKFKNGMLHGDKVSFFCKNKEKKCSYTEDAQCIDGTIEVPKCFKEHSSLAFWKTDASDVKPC

T5: Amyloid-like misfolded OVA (DOVA), obtained by cyclic thermal misfolding, P01012
T5 chain: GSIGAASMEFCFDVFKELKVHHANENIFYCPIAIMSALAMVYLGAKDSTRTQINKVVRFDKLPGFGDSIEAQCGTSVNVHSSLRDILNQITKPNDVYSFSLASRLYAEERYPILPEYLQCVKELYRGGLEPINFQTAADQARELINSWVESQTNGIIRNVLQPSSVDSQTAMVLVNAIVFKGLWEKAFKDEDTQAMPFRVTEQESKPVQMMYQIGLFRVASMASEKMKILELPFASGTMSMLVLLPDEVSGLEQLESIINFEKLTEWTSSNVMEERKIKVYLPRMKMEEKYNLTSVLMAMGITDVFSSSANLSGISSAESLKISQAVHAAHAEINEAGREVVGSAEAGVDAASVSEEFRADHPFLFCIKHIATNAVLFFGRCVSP

T6: amyloid fibrin peptide FP13 K157G, P02671
T6 chain: KVQHIQLLQGNVR

T7: mouse non-amyloidogenic IAPP (20-29) core
T7 chain: SNNLGPVLPP

T8: amyloid fragment of transthyretin
T8 chain: YTIAALLSPYS

T9: non-amyloid fragment FP10 of human fibrin α-chain (148-157)
T9 chain: KRLEVDIDIK

T10: laminin α1-chain (2097-2108) amyloid core peptide
T10 chain: AASIKVAVSADR

B1: Tissue-type plasminogen activator (tPA, Actilyse, Boehringer-Ingelheim) (protein)
chain: SYQVICRDEKTQMIYQQHQSWLRPVLRSNRVEYCWCNSGRAQCHSVPVKSCSEPRCFNGGTCQQALYFSDFVCQCPEGFAGKCCEIDTRATCYEDQGISYRGTWSTAESGAECTNWNSSALAQKPYSGRRPDAIRLGLGNHNYCRNPDRDSKPWCYVFKAGKYSSEFCSTPACSEGNSDCYFGNGSAYRGTHSLTESGASCLPWNSMILIGKVYTAQNPSAQALGLGKHNYCRNPDGDAKPWCHVLKNRRLTWEYCDVPSCSTCGLRQYSQPQFRIKGGLFADIASHPWQAAIFAKHRRSPGERFLCGGILISSCWILSAAHCFQERFPPHHLTVILGRTYRVVPGEEEQKFEVEKYIVHKEFDDDTYDNDIALLQLKSDSSRCAQESSVVRTVCLPPADLQLPDWTECELSGYGKHEALSPFYSERLKEAHVRLYPSSRCTSQHLLNRTVTDNMLCAGDTRSGGPQANLHDACQGDSGGPLVCLNDGRMTLVGIISWGLGCGQKDVPGVYTKVTNYLDWIRDNMRP
B2: human factor XII from plasma (Calbiochem, #233490) (protein)
chain: IPPWEAPKEHKYKAEEHTVVLTVTGEPCHFPFQYHRQLYHKCTHKGRPGPQPWCATTPNFDQDQRWGYCLEPKKVKDHCSKHSPCQKGGTCVNMPSGPHCLCPQHLTGNHCQKEKCFEPQLLRFFHKNEIWYRTEQAAVARCQCKGPDAHCQRLASQACRTNPCLHGGRCLEVEGHRLCHCPVGYTGAFCDVDTKASCYDGRGLSYRGLARTTLSGAPCQPWASEATYRNVTAEQARNWGLGGHAFCRNPDNDIRPWCFVLNRDRLSWEYCDLAQCQTPTQAAPPTPVSPRLHVPLMPAQPAPPKPQPTTRTPPQSQTPGALPAKREQPPSLTRNGPLSCGQRLRKSLSSMTRVVGGLVALRGAHPYIAALYWGHSFCAGSLIAPCWVLTAAHCLQDRPAPEDLTVVLGQERRNHSCEPCQTLAVRSYRLHEAFSPVSYQHDLALLRLQEDADGSCALLSPYVQPVCLPSGAARPSETTLCQVAGWGHQFEGAEEYASFLQEAQVPFLSLERCSAPDVHGSSILPGMLCAGFLEGGTDACQGDSGGPLVCEDQAAERRLTLQGIISWGSGCGDRNKPGVYTDVAYYLAWIREHTVS

Experiments:
[1] = molecular target: T1, Ovalbumin (chicken egg albumin, OVA, …)
[2] = molecular target: T2, β2-glycoprotein I purified from fresh …
[3] = molecular target: T3, recombinant human β2-glycoprotein I …
[4] = molecular target: T4, human β2-Glycoprotein I pre-incubated …
[5] = molecular target: Native murine serum albumin (nMSA, #126674, Calbiochem), P07724
[6] = molecular target: heat/acid-denatured human glucagon (Glucagen, Novo Nordisk), P01275
[7] = molecular target: T5, Amyloid-like misfolded OVA (DOVA), …
[8] = molecular target: native human glucagon (freshly dissolved), P01275
[9] = molecular target: recombinant human collagen XVIII fragment endostatin (Entremed, Inc), P39060
[10] = molecular target: albumin (ICN, 160069), P02769
[11] = molecular target: T6, amyloid fibrin peptide FP13 K157G, …
[12] = molecular target: T7, mouse non-amyloidogenic IAPP (20-29) …
[13] = molecular target: T8, amyloid fragment of transthyretin
[14] = molecular target: T9, non-amyloid fragment FP10 of human …
[15] = molecular target: Glycated haemoglobin (Hb-AGE)
[16] = molecular target: T10, laminin α1-chain (2097-2108) amyloid …

Chain of recombinant human collagen XVIII fragment endostatin (Entremed, Inc), P39060 (P39060 whole entry, looked up, the tested form may be a part): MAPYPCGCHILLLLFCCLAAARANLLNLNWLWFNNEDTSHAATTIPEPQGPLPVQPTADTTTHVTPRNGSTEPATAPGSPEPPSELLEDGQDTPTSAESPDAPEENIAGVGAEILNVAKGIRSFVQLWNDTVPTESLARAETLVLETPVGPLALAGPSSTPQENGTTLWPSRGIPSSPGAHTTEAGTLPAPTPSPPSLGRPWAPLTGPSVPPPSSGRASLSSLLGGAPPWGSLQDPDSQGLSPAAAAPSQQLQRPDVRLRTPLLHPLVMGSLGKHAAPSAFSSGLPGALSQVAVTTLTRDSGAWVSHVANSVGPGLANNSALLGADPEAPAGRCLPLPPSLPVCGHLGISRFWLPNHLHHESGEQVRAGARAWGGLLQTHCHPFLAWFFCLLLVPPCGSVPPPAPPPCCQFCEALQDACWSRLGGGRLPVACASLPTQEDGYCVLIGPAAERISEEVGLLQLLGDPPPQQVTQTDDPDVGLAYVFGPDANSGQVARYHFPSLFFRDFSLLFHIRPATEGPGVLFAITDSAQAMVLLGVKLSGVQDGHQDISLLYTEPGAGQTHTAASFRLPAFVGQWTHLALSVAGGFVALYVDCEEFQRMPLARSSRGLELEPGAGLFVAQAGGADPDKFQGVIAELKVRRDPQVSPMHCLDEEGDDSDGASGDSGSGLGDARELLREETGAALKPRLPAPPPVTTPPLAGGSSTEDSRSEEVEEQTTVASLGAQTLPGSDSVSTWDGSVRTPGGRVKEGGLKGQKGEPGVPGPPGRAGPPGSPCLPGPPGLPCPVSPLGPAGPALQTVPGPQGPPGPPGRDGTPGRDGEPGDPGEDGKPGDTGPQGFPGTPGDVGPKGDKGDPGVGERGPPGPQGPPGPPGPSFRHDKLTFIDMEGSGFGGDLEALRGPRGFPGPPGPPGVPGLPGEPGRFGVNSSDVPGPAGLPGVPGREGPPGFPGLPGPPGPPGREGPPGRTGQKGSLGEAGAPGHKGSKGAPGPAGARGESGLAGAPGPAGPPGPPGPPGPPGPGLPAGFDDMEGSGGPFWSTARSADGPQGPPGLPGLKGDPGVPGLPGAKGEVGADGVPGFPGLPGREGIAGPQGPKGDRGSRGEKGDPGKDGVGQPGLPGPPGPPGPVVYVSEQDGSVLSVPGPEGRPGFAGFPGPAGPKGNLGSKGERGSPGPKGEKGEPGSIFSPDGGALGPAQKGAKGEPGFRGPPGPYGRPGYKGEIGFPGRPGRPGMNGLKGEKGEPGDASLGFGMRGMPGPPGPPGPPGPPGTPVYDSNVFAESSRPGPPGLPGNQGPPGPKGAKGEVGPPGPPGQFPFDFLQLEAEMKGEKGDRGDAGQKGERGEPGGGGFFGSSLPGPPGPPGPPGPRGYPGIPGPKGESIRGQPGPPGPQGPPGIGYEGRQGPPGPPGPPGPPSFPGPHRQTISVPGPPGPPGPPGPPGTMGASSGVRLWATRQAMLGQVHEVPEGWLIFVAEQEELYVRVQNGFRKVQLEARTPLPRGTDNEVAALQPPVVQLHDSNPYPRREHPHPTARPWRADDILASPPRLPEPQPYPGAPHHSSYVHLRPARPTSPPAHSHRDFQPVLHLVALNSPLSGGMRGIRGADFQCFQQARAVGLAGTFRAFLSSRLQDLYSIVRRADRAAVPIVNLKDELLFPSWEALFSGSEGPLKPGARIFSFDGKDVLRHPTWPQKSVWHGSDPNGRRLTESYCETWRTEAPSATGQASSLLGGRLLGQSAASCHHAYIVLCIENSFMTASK
Chain of Native murine serum albumin (nMSA, #126674, Calbiochem), P07724 (P07724 25-608): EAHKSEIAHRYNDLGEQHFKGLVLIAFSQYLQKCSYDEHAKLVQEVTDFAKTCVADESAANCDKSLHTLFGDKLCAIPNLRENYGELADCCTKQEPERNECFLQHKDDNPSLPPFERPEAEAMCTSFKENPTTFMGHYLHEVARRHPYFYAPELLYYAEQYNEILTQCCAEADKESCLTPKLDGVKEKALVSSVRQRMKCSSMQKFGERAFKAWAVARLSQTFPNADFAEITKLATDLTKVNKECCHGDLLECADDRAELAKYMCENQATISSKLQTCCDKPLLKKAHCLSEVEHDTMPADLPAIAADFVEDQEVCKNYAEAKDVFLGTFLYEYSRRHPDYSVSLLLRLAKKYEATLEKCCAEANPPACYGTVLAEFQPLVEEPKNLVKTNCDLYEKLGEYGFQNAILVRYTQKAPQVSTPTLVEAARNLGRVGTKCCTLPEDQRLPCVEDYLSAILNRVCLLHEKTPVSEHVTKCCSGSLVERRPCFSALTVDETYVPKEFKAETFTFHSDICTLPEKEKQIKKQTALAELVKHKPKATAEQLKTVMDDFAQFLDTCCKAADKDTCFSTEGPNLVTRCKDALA
Chain of albumin (ICN, 160069), P02769 (P02769 25-607): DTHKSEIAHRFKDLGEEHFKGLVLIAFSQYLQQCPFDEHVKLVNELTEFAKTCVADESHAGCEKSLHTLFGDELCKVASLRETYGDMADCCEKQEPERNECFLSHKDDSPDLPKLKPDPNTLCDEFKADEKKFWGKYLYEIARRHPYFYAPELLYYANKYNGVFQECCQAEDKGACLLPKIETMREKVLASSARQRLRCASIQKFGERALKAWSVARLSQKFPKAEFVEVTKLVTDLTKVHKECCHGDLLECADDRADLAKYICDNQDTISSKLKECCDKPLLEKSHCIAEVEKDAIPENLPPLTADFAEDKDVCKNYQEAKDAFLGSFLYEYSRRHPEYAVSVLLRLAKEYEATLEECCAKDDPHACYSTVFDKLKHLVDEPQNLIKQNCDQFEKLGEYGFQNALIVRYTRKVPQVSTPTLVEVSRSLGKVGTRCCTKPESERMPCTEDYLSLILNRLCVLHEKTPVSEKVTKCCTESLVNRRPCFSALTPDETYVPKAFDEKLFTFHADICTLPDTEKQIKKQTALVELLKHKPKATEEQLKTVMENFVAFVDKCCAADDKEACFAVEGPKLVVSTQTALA
Chain of native human glucagon (freshly dissolved), P01275 (P01275 53-81): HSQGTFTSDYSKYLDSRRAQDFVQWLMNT

Row | Protein | tPA/plasminogen activation assay [1] | tPA-mediated conversion of Plg to plasmin (substrate S-2251) [2] | tPA-mediated conversion of Plg to plasmin (substrate S-2251) [3] | chromogenic tPA/plasminogen activation assay with a plasmin substrate [4] | Plg-activation assay [5] | Plg-activation assay [6] | tPA/plasminogen activation assay [7] | Plg-activation assay [8] | factor XII and subsequent prekallikrein activity (Chromozym-PK) [9] | factor XII and subsequent prekallikrein activity (Chromozym-PK) [10] | auto-activation of purified factor XII, substrate S-2222 [11] | activation of factor XII, detected by the conversion of Chromozym-PK [12] | activation of factor XII, detected by the conversion of Chromozym-PK [13] | activation of factor XII, detected by the conversion of Chromozym-PK [14] | auto-activation of purified factor XII, substrate S-2222 [15] | activation of factor XII, detected by the conversion of Chromozym-PK [16]
1 | B1 | OVA displays characteristics that are a hallmark for the presence of at least a fraction of the molecules with crossbeta structure, as shown by ... the enhanced activation of tPA and plasminogen | Recombinant β2GPI, but not β2GPI purified from fresh plasma stimulate tPA-mediated conversion of Plg to plasmin | Recombinant β2GPI, but not β2GPI purified from fresh plasma stimulate tPA-mediated conversion of Plg to plasmin | Exposure of human β2gpi to cardiolipin renders the mixture with tPA/plasminogen activating properties | also native albumin enhanced ThT fluorescence to some extent, but this was not reflected by stimulation of tPA activation | In this way, a potent activator of tPA was obtained | After cyclic thermal misfolding, however, signals representative for crossbeta structure are far more pronounced with denatured OVA | at high glucagon concentration, also native glucagon has some tPA activating potential |  |  |  |  |  |  |  | 
2 | B2 |  |  |  |  |  |  |  |  | Neither albumin or endostatin alone, nor kaolin or DXS500k alone are efficient activators of factor XII, whereas combinations of adjuvant and protein cofactor results in factor XII and subsequent prekallikrein activity | Neither albumin or endostatin alone, nor kaolin or DXS500k alone are efficient activators of factor XII, whereas combinations of adjuvant and protein cofactor results in factor XII and subsequent prekallikrein activity | All three amyloid-like aggregates are able to induce factor XII auto-activation. FP13 K157G and Hb-AGE have a potency to induce auto-activation that is similar to the established surface activator DXS500k | non-amyloid controls fibrin fragment FP10 and non-amyloid murine islet amyloid polypeptide mIAPP do not activate factor XII | cross-β structure conformation rich peptides laminin (LAM12) and transthyretin (TTR11) stimulate factor XII activation, to a similar extent as kaolin | non-amyloid controls fibrin fragment FP10 and non-amyloid murine islet amyloid polypeptide mIAPP do not activate factor XII | All three amyloid-like aggregates are able to induce factor XII auto-activation. FP13 K157G and Hb-AGE have a potency to induce auto-activation that is similar to the established surface activator DXS500k | cross-β structure conformation rich peptides laminin (LAM12) and transthyretin (TTR11) stimulate factor XII activation, to a similar extent as kaolin
